The record followed here is patent US20250333486A1, “Anti-HSP90 alpha antibody and uses thereof” (NATIONAL HEALTH RESEARCH INSTITUTES, priority 2021, published 2025).

Data set [1] relates to K-Ras^G12D-induced PDAC in LSL-KrasG12D/Pdx1-Cre mice. Put plainly: Therapeutic efficacy in K-Ras^G12D-induced desmoplastic mouse PDAC model. Format: in vivo. The protocol:
Mouse experiments were performed with the permission of the Institutional Animal Care and Use Committee of National Health Research Institutes (NHRI-IACUC-106031-A, 109022-M2-S02, and 109196-A). To establish a desmoplastic tumor transplant model, C57BL/6 mice at 12 weeks of age were subcutaneously inoculated with a mix of Panc 02 cells and EndoMT-derived CAFs (i.e. OPN-treated 3B-11 cells). See Fan C S, Chen L L, Hsu T A, et al. Endothelial-mesenchymal transition harnesses HSP90α-secreting M2-macrophages to exacerbate pancreatic ductal adenocarcinoma. J Hematol Oncol 2019;12:138; and Chua K V, Fan C S, Chen L L, Chen C C, Hsieh S C, Huang T S. Octyl gallate induces pancreatic ductal adenocarcinoma cell apoptosis and suppresses endothelial-mesenchymal transition-promoted M2-macrophages, HSP90α secretion, and tumor growth. Cells 2020;9(1):91. Sizes of developing tumors were superficially measured with a Vernier caliper, and tumor volumes were calculated with the formula ½×length×width^2. Real tumors were weighed when mice were sacrificed. To establish a desmoplastic tumor transplant model in humanized mice, NOD-SCID IL2R^null (ASID) mice transplanted with human hematopoietic stem cells (hHSC) were subcutaneously inoculated with a mix of PANC-1 cells and OPN-treated HUVECs. The employed hHSC-transplanted ASID mice were produced from the National Laboratory Animal Center (Taipei, Taiwan) and all contained human CD45^+ cell levels more than 38% of total lymphocytes. To establish an M2-macrophage-exacerbated mouse PDAC model, C57BL/6 mice were subcutaneously inoculated with a mix of Panc 02 cells and rHSP90α-treated BMDMs. Additionally, LSL-KrasG12D/Pdx1-Cre transgenic mice were adopted as a spontaneously PDAC-developing mouse model to evaluate the therapeutic efficacy of HH01 antibody. LSL-KrasG12D and Pdx1-Cre breeder mice were obtained from the Mouse Models of Human Cancers Consortium Repository of the National Cancer Institute (Frederick, Maryland, USA). LSL-KrasG12D mice were crossed with Pdx1-Cre mice to generate LSL-KrasG12D/Pdx1-Cre mice.
For assaying the HSP90α-binding activities of the prepared antibodies, 96-well plates were coated with 12.5 ng/ml of rHSP90α in the capture buffer (BioLegend, San Diego, CA, USA) by overnight incubation at 4° C. The coated plates were washed twice with PBST and then blocked with PBST plus 3% bovine serum albumin (BSA). The prepared antibodies were applied and incubated 2 h at room temperature. After three washes with PBST, horseradish peroxidase-conjugated secondary antibody was added and incubated at 37° C. for another 1 h. After three washes, 0.3 mg/ml of 3,3′,5,5′-tetramethylbenzidine in 0.015% H2O2 was added into each well and incubated in the dark at room temperature for 10 min. The reactions were stopped by the addition of 0.5 M H2SO4, and OD450 values were measured by an Infinite M200 microplate reader (TECAN, Männedorf, Switzerland). Additionally, the immunoglobulin (IgG) isotype characterization of anti-HSP90α antibodies was performed by using the Mouse Ig Isotyping ELISA Ready-Set-Go!™ Kit (eBioscience™, Thermo Fisher Scientific, Waltham, MA, USA). The ELISA protocol was also used to assay the secreted HSP90α levels of mouse serum samples as described previously. See Chen J S, Hsu Y M, Chen C C, Chen L L, Lee C C, Huang T S. Secreted heat shock protein 90α induces colorectal cancer cell invasion through CD91/LRP-1 and NF-κB-mediated integrin αV expression. J Biol Chem 2010;285(33):25458-66.
Mouse paraffin-embedded tissue sections were deparaffinized by xylene and rehydrated by a series of ethanol dilutions. Masson trichrome staining was performed using a Trichrome Stain Kit (ScyTek Laboratories Inc., Utah, USA) according to the manufacturer's protocol. The stained sections were dehydrated in graded ethanol solutions and xylene, and finally mounted with mounting solution overnight in the dark at room temperature. […]

A further data set in a line: Solubility of antibody. Format: physicochemical.

B1: HH01: humanized anti-HSP90α IgG1 antibody, mutant of Clone-2-chimera; VH SEQ ID NO: 12, VL SEQ ID NO: 17 (antibody, V domains shown)
VH: EVQLVESGGGLVQPGGSLRLSCAASGFTFKTYAMNWVRQAPGQGLEWVARIRSKSRNYATYYADSVKDRFTISRDDSKNQFYLQMNNLRTEDTAVYYCVVGGSGFDYWGQGTTLTVSS
VL: DVVMTQTPLSLPVSLGDQASISCRSSQSIVHSNGNTYLEWYLQKPGQSPQLLIYKVSNRFSGVPDRFSGSGSGTDFTLTISSVEAEDLGVYYCFQGSHVPWTFGGGTKLEIK
modifications: Heavy chain variable region; Light chain variable region
Take B1: the “mice still surviving on Day-450” value in data set [1] (5 mg/kg IV, 10-dose schedule from 6 months of age) is 7 of 9. The molecule also gave a median survival time in data set [1] (5 mg/kg IV, 10-dose schedule, Kaplan-Meier, end point Day-450) of over 450 days. The liver desmoplasia result in data set [1] (Masson trichrome staining) was “significant improvement”. Besides, the “elevation of serum HSP90α levels” value in data set [1] (after vs. before treatments) is given as “effectively abolished”. For the same molecule, the pancreatic desmoplasia result in data set [1] (mice still surviving on Day-450) is “drastically recovered”. The “tumor nodules on livers” value in data set [1] (one mouse per group) is “fewer nodules than IgG-treated mouse”. For the same molecule, the water solubility result in the data set “Solubility of antibody” is reported as “quite water-soluble”. Moreover, the “solubility in PBS” value in the data set “Solubility of antibody” (PBS) is over 10000 µg/mL.
